Target: BCG3185c (Mycobacterium tuberculosis (title); called a Bacillus Calmette-Guérin (BCG) protein)
Assay: SEC

Substance: BCG3185c (enzyme)
- stoichiometry N: 3
